Experimental data reported in patent publication US20250333521A1 (SYNTHEKINE, published 2025).
Changes are numbered by the printed parent chain.

B1: hIL10Rb_VHH-4 (VHH)
VHH: QVQLQESGGGSIQAGGSLRLSCAASRYLYSIDYMAWFRQSPGKEREPVAVIYTASGATFYPDSVKGRFTISQDNAKMTVYLQMNSLKSEDTAMYYCAAVRKTDSYLFDAQSFTYWGQGTQVTVSS
notes: Periplasmic extract of the phage clone (pMECS, HA/His) as tested in PE-ELISA; not shown: HA/His tag of the pMECS phagemid
B2: hIL10Rb_VHH-6 (VHH)
VHH: B1 VHH with R19T, Y27D, I31T, D32N, M34V, P47A, F59L, P61S, D103G, S104H
notes: as for B1

Target: T1, human IL10Rb ECD antigen (human, UniProt Q08334 20-220)
T1 construct: Coat of the panning and PE-ELISA plates; also called hIL10Rb extracellular domain; IL10Rb (plate coat)
T1 sequence: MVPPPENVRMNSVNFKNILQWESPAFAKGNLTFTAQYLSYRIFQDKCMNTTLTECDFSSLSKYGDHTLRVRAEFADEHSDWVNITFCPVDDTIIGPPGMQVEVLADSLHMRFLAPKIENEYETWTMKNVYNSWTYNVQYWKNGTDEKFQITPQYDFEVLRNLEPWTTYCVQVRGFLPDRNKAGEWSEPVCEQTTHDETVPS
Assay: periplasmic extract ELISA of phage clones on antigen-coated plate
Method: Upon completion of the biopanning of Example 3, three 96-well plates of individual phage clones were isolated in order to perform periplasmic extract ELISA (PE-ELISA) on IL10Rb coated plates to identify positive VHH binders that selectively bound IL10Rb. A 96-well plate was coated with IL10Rb and PBS under the same conditions. Next, wells were blocked at 37° C. for 1 h. Then, 100 μl of extracted antibodies was added to each well and incubated for 1 h. Subsequently, 100 μl of anti-tag polyclonal antibody conjugated to HRP was added to each well and incubated at 37° C. for 1 h. Plates were developed with TMB substrate. The reaction was stopped by the addition of H2SO4. Absorbance at 450 nm was read on a microtiter plate reader. Antibodies with absorbance of the antigen-coated well at least threefold greater than PBS-coated control are VHHs that specifically bind to IL10Rb. Positive clones were sequenced, and sequences analyzed to identify unique clonotypes

Binder	binding result
B1	binds
B2	binds
